This is an account of results in the DeepSol protein solubility set.

This data set is described as follows: soluble on expression in E. coli; label from the status in PepcDB or PDB records.
In the case of “MGSDKIHHHHHHMDHLPPLRLLVTFEAISRHGSMRDAAQRLNVTQPAVSQALKALEDHVGVALFDRSVRPARLTDAGEMLSRAVREGLGRIAATLEDIRALHAIGERQVTVSCTLGMATYWLMPKLPMFYADYPELTVNVQAPATDLPVLSPGIDVALRYGRGGWREGRTEKLFAEVICPVGAPALVERLLAEGATLAEAPLIHVRNPHNDHWAGWEDYLQARGIQRPRGGGQIFNNYVQAAQAIYDGRGLMLGWRSITGQAERDGALRAWPDGALDLGTSYFVTMPTTPSQDTLLFVDWVRKAAATV”, the “soluble on expression in E. coli” value was “not soluble”.

Regarding “MGSDKIHHHHHHMAAGSTLWTRIPAMQQQNHPPYTLAIAQGESISLDPSHFTPEHWQALAAVTGTSKGRYTTWFVRHPEANQDWVLRHYWRGGLMEKFSKDRYLYTGMANTRAIAELALLEKLHAEGFPVPRPVGARVRRYALWYSADILIERMPGCRDLLAWLEQGPLDEAEWKALGVCIARFHHRGVYHADLNAKNILKGPQGFALIDFDRGEIRNPANSWQQANLSRLRRSFDKEKGKLPSLAFDESCWQWLLEGYAAA”, the “soluble on expression in E. coli” value was “not soluble”.

On to “MGSDKIHHHHHHMSQIISVHSFRGGTGKSNMTANLATTLALQGKRIAIIDTDIQSPGIHVIFGLNEQKMNNCLNDYLWGKCAIEDAAYDVTHLLKGEGGSGKLYLIPSSINPGQITRILREGYDVARLNDGFYEIINALDLDYLLIDTHPGLNEETLLSIAISDILVVILRPDQQDFQGTAVTLEVARKLEVPKMMLVVNKVLSTFDFNALQQEVESTYKTPVAGIVPLSEDIIRLASSNIFCLLYTSHPFSQVVQKITAQIIREQAKVAVRGAF”, for which the “soluble on expression in E. coli” value was “not soluble”. In the case of “MAHHHHHHMNNSLLGSLFAKRTKEPRDLDAAEMPQLRTGRSRASSESSTTSARSQRDGKKKKQQRRHPGKRRDAQDSDSGDEGVRQHSTPLTSPAPHPRASSVGSEFSDIEENPRPRNQRRSSGKVLRSSGTVAGAEKAKADERPPMAHSTPEVLPGADNLATNPLGEAGAGGEGAAGGQRHLPPMSQSAPMTSGRGSAAETVAVLRKEGSIEASQQQASTLTAGQLCGVAANSTVSFSGDDAAVLGASLNNTCSAATTISHHPTQPLAPAPGSSSGSPEDHKGSPPRACSSAEEGKKCDNRDSNTRRAVSGKDGEEMTHVDTEKQQPHDRSGDTPDRDVGASGKAWEGQRDATSAVEKDTHPLLDTASLRHTLDSFGSRPSSKLRRRSLGIGGSSKCVPAMLDRSRDGDGTSMTPSDGDEILKGLSFFNAASGEFVLTNHDIHSLEAFLFGTRALVVHINDLQKALLEMQHATDLARLL”, the “soluble on expression in E. coli” value was “not soluble”. Regarding “MARKTTVAKVGSKGPGSTKKTIQAVRPTVRTQGAVTRSQAALRGHMGITDSSTSTSSSRIPKEKLKKKASSRSRSRSRSKSTRRSRSKSTRSRSRSRSRSRSSTRGKKRAPKKAVTTKAARSISPVKVKKTEAIKSRGSSKTARRVSAAHK”, the “soluble on expression in E. coli” value is “not soluble”. Then “MLKSVLGKFSVGDKMIEVTFLGAGGGRFVTITQVRSTGGFFIKASKNIFVDPGPGALIRMIRYKLDPRKIDVLFISHRHTDHCNDAEVIVEGMTYGVTKRRGILIGSRSVVHGDDAHTPALSKYHLEALEEVHAPNPGDRFKLGNEDMVITPSVHSDPTTIGFRLKTNFGDISYIADTEYFEGLEEWHDGTRVLIASVTRPRDMKIPYHLSTDDVVYMLKKMKEKPEVLIMTHLGMKMHFAGPYKEAEYIQNVTGVKTYVAKEGFRITIGKEIHVKTLRPVRFVLEHHHHHH”, with “soluble”. Under “SKIVKIIGREIIDSRGNPTVEAEVHLEGGFVGMAAAPSGASTGSREALELRDGDKSRFLGKGVTKAVAAVNGPIAQALIGKDAKDQAGIDKIMIDLDGTENKSKFGANAILAVSLANAKAAAAAKGMPLYEHIAELNGTPGKYSMPVPMMNIINGGEHADNNVDIQEFMIQPVGAKTVKEAIRMGSEVFHHLAKVLKAKGMNTAVGDEGGYAPNLGSNAEALAVIAEAVKAAGYELGKDITLAMDCAASEFYKDGKYVLAGEGNKAFTSEEFTHFLEELTKQYPIVSIEDGLDESDWDGFAYQTKVLGDKIQLVGDDLFVTNTKILKEGIEKGIANSILIKFNQIGSLTETLAAIKMAKDAGYTAVISHRSGETEDATIADLAVGTAAGQIKTGSMSRSDRVAKYNQLIRIEEALGEKAPYNGRKEIKGQA” stands “soluble”.
